Experiment: label from the status in PepcDB records
In the case of “MKPDDLPSDVSSDPLLRLRRQISDEASQCVACGLCVPHCPSYRVTLSEADSPRGRIALMSGVAAGRIPMNARFALHMDRCLTCRACEAVCPNHVRFGELIDDAREMISSPPLEFGGNNPGARVSSFRKWVERELIARPSRIDALRPLLRFYQRSGLQKWVRKSGLLGKTKLALLEAQIPFIDQPRSSSWSVVYPAVGKPRGEVGLFLGCVARVADATTLDAALFVLNQLGYVVHVPTGQTCCGALHQHRGDMDAAAQLERQNVEAFAGLDLGAIITTASGCGAQLSEYSSFSGSQRTTRAPAVSSQAGGETTRRSPPKVLDISEFLAEAEGWEDARFQPLPHKILVHEPCTLRNVLRASTYAYKLLERIPQAQVVPLAGNDQCCGAAGTYFLDQPEISAALLEDKVTALKAGQACYLATSNVGCALHIAAGLRRPGLGIEVIHPVTLIARQMGMQSQSLK”, the protein production was “failed”.
For “MKPEHRMDTISKLEEGAETPVTGRVMKISSPRTFTTRKGREGKLANVIIADDTGELRAVFWTENIKLLKKFREGDVIRIKDVNIRGGFGGRKEAHLMPRSTVEVLDPLEHHHHHH”, the protein production was “not failed”.
With “MKPGGTVRALDRLGSAEYPSSHMEVLVAEGTRPSRQRNQAAAAAAGEILYFLDDDSLTSPDFLARAAAHLADPSIAAVGGPSLTPASDSRFQRAIGVVLASRLGGGGARNRYRATGSPRRTSERELILCNLAMRRDVFLAEGGLDERLYPNEENELMDRISKRGMSLVHDPDLAVRRSQRPTFRAFVRQFFGYGRGRGEQTRIAGVRSVVDFLPTVFLIYLLLLPVAPWAPCFLPAALYGAAVMVSALSGAVHSRLYAALPWLVVLYPTLHLCYGAGLLKGLLAPRFRSGGGETAPVTIRCVKEFGTPWHLPAHGPREVPR” the protein production was “failed”.
With “MKPKVFITREIPEVGIKMLEDEFEVEVWGDEKEIPREILLKKVKEVDALVTMLSERIDKEVFENAPKLRIVANYAVGYDNIDIEEATKRGIYVTNTPDVLTDATADLAFALLLATARHVVKGDRFVRSGEWKKRGVAWHPKWFLGYDVYGKTIGIIGLGRIGQAIAKRAKGFNMRILYYSRTRKEEVERELNAEFKPLEDLLRESDFVVLAVPLTRETYHLINEERLKLMKKTAILINIARGKVVDTNALVKALKEGWIAGAGLDVFEEEPYYNEELFKLDNVVLTPHIGSASFGAREGMAELVAKNLIAFKRGEIPPTLVNREVIKIRKPGFE” the protein production was “not failed”.
With “MKPNEVQIQLERLFRTPIEHPDSSKTAPIAISDLFVQIDPAAGEVQLFNDKDEELHRVVIYDWIQEGRTEIPSAMRQELRAAVKRLHAARFFDKDQFVRPFSVALTQEDFTIIEELLFIDDELIQLDSALLENLDEELNNFLAELLPDIKLEHHHHHH” the protein production was “not failed”.
In the case of “MKPNFKNIDIYAGFQPQNGMEWQKENGITADWKTPEHINVKPVYTKEDLEGMEHLNYVAGIPPYLRGPYSMMYTFRPWTIRQYAGFSTAEESNAFYRRNLASGQKGLSVAFDLPTHRGYDPDHERVVGDVGKAGVSICSLENMKVLFDGIPLNKMSVSMTMNGAVLPIMAFYINAGLEQGAKLEEMAGTIQNDILKEFMVRNTYIYPPAFSMKIISDIFEYTSQKMPKFNSISISGYHMQEAGATADIELAYTLADGLEYLRAGVAAGIDIDAFAPRLSFFWAIGMNHFMEIAKMRAARMLWAKIVKQFNPKNPKSLALRTHSQTSGWSLTEQDPFNNVGRTCIEAMAAALGHTQSLHTNALDEAIALPTDFSARIARNTQIYIQEETYVCKNVDPWGGSYYVESLTNELAHKAWEHIQEIESLGGMAKAIETGVPKMRIEEAAARTQARIDSGAQTIVGTNKYRLEKEDPIDILEVDNTAVRLEQIENLKRLKEGRNQAEVDKALAAITECVKTGKGNLLELAVEAAHVRATLGEISDACETIVGRYKAVIRTISGVYSSESKKDTDFARACELTEEFAKKEGRRPRIMIAKMGQDGHDRGAKVVATGYADCGFDVDMGPLFQTPAEAARDAVENDVHVVGVSSLAAGHKTLIPQIIEELKKLGREDILVIAGGVIPAQDYDFLYKAGVVAIFGPGTSVAKAAVQIMDILLDEEE”, the protein production was “failed”.
In the case of “MKPRDTRVKPGSRVSLADWHTDGDAFVGKDKAASMARLDDDRVRLEELQELLYAEGKHRLLVVLQAMDTAGKDSTIRHVFRGVDPLGVRVANFGVPSTHELRHDYLWRVHPHVPASGEIAIFNRSHYEDVLVPRVNGAIGHAECERRYRQINDFERMLSETGTTIRKFYLHISKDEQKKRLEARRDTPKKRWKFQPGDLAVRAQWDDYRAAYDALLSATSTRHAPWHVVPADDKLARNLIVSALLIEALEGLDMRYPEPVAGVAGTPII”, the protein production was “not failed”.
In the case of “MKPRKKSVQPIGLKDITIVDDAKMKKAITAAALGNAMEWFDFGVYGFVAYALGKVFFPNADPSVQMIAALATFSVPFLIRPLGGLFFGALGDRFGRQKILAATIVIMSLSTFAIGLIPSYASIGIWAPILLLLAKMAQGFSVGGEYTGASIFVAEYAPDRKRGFLGSWLDFGSIAGFVLGAGVVVLISTVLGEEKFLDWGWRLPFFLALPLGIIGLYLRHALEETPAFQQHVDKLEQGDREGLASGPKVSFKEVATQHWRSLVTCIGVVIATNVTYYMLLTYMPSYLSHNLHYSEDHGVLIIIAIMVGMLFVQPIIGLLSDKFGRRPFIIVGSVGLLALAIPAFMLINSGVLGLIFAGLLIIAVLLNFFIGVMASTLPAMFPTHIRYSALASAFNISVLIAGLTPTLAAWLVETTNDLYMPAYYLMVIAAVGLVTGLTMKETANKPLRGAAPAASDIEEARELLQEHHDNIEQKIEDIDAQIAELEAKREKLALQHPRIE”, the protein production was “not failed”.
In the case of “MKPTLFLLAAGMGSRYGGLKQLDGLGPNGETIMDYSIYDAINAGFGKLVFVIRKDFEQDFREKIISKYEGHIPCELVFQSIDDLPEGFTCPADRTKPWGTNHAVMMGADVISEPFAVINCDDFYGRDSFQVMGKFLSALPENSKNVYSMVGFRVGNTLSESGTVSRGICSTDANNLLTSVVERTKIQRLDGEVKYIDDNGEWTATPDTTPVSMNFWGFTPDYFAYSEEFFKTFLSDPKNMENLKSEFFIPLMVDKLINDGTATVEVLDTTSKWFGVTYPEDRQSVVDKIQALVDAGEYPAKLFLEHHHHHH”, the protein production was “failed”.
In the case of “MKPVIQTFLRAAAVAGLALLAGCAGVSTTQSGAIGVDRTQYMSSLVPEQALVQEAGQQYAEIVQEARAKGLLDRDPAQLSRVRAISQRLIAQTGVFRADAANWPWEVHVLSVDEVNAWCMPGGKIAVYTGLLAHIKPTDDELAAVLGHEIAHALREHARERVSQQMATSIGLSVLSMATGSPGASDLGGKLTEVMFTLPNSRTHETEADRMGVELAARAGFDPRAAVTLWQKMGAADGNAPPEFLSTHPSASTRIGELQQALQKVLPLYEQARGQAAKLEHHHHHH”, the protein production was “not failed”.
In the case of “MKQFLITGGTGMVGSQLVNKLKNRDVHITILTRSDKQSDDPKISYVNWSKDGWMSQVPDIDVVVNLAGATLNKRWTPSYKQLIMTSRIQSTQSLVDLFSQREHKPEVLFNASAMGYYPPSLYHTYTEKYQTHPFDFLSDVVYQWERFAKRFESFGTRVVLGRFSMILSNDGGALQTMKLPYKFFVGGKLGSGFQWYSWIHINDLVRAILFTIDNPNAKGPFNMAAPIAERQNLFGYTLARVMHRPHETWVPSFLMRLALGEMSTVVLDTQKVLPNKLDALGFTFNYSNLKIAFEDLIDALEHHHHHH”, the protein production was “failed”.
For “MKQILTYLLFIWILLPLKAEEKIYTVDNIPKVHLQNKMQYVCNPAGILSQQACDEIDAMLYALEQQTGIETVVAIVPSIGDKDCFEFSHQLLNQWGVGKKGKDNGLVILLVTDQRCIQFYTGYGLEGILPDAICKRIQMQEMIPYLKKGEWNQGMLAGVKAVCQRLDGSMVNDDEGRGEEGISVSMLLVVILGFITIAGVVGTLAVRASTRCPKCGKHQLQRSSTKLISNRNGVKTEDIIYTCRNCGHTVVRRQQSYDDNYRGRGGGGPFIGGFGGGSFGSGGGGGFSGGSFGGGSGGGGGAGSRFLEHHHHHH”, the protein production was “failed”.
With “MKQIRLLAQYYVDLMVKLGLVRFSLLLASVLVLLAMVVQMAVTLLLSGEVENIDVVRSIFFGLLITPWAVYFLSVVVEQLEESRQRLSKLVAKLEEMRHRDLELNVQLQENIAQLNQEIADRIKAEEARVLVMSRLKEEMSRREQAQIELEQQSALLRSFLDASPDLVYYRNEEKEFSGCNRAMELLVGKSQKQLIGLTPQDVYAPDIAEKVMETDEKVFRHNVSLTYEQWLVYPDGRKACFELRKVPFYDRMGKRHGLMGFGRDITERKRYQDALENASRDKTTFISTISHELRTPLNGIVGLSRILLDTQLDLEQQKYLKTIHVSAITLGNIFNDVIEMDKQERRKVQLDNQPIDFTGFLVDLENLGGLLAEQKGLKLIMDQHQPLPQKVITDGTRLRQILWNLLSNAVKFTPKGEKGEKGEIVVRVWHEKGDRLRFEVEDSGMGIPADELEKIFAMYYQVKDQHGGKPATGSGIGLAVSKRLAQNMGGDIHVSSSQGKGSCFTLTVIAPSADEAGSGLEDDDDLPLPALHVLLVEDIELNVVVARSVLEKLGNSVDVAMTGQEALDMFDPDEFDLVLLDIQLPDMTGLDVARQLRSRYGKRSLPPLVALTANVLKDKREYLDAGMDDVLSKPLSVPALTAVIKQHWDTHTVWTEESVVEEGDEMAKVKEDLLDIPMLEQYLDLVGPKLIHQSLEMFEQMMPGYLAILDSNMTARDQKGITEEGHKIKGAAGSVGLRHLQQIAQQIQTSSLPAWWDNVQEWIDELKHDWRHDVQVLRDWVAKAEKES” the protein production was “failed”.
With “MKQIRMLAQYYVDLMMKLGLVRFSMLLALALVVLAIVVQMAVTMVLHGQVESIDVIRSIFFGLLITPWAVYFLSVVVEQLEESRQRLSRLVDKLEEMRERDLKLNVQLKDNIAQLNQEIGEREKAEAERETTLEQLKIEMKEREETQIQLEQQSSFLRSFLDASPDLVFYRNEDKEFSGCNRAMELLTGKSEKQLIHLKPQDVYSEEAAEKVLETDEKVFRHNVSLTYEQWLDYPDGRKACFEIRKVPYYDRVGKRRGLMGFGRDITERKRYQDALERASRDKTTFISTISHELRTPLNGIVGLSRILLDTELTSEQEKYLKTIHVSAVTLGNIFNDIIDMDKMERRKVQLDNQPVDFTSFLADLENLSGLQAQQKGLRFVLEPSLPLPHKVITDGTRLRQILWNLISNAVKFTPQGGGVNVRVRYDEGDILHFEVEDSGIGIPEAEQDKIFAMYYQVKDSHGGKPATGTGIGLAVSRRLARNMGGDISVTSQPGKGATFTLTVHAPAIAEEVEDTLAEDDMPLPALNVLLVEDIELNVIVARSVLEKLGNSVDVAMTGKAALEMFEPGEYDLVLLDIQLPDMTGLDISRELKQRFAADELPPLVALTANVLKNKKEYLDAGMDDVLSKPLSVPALTAMIKKFWDAPDEEAQEAPAADLHKADAVLDTDMLEQYIELVGPKLINDGLAVFEKMMPGYMSVLESNLTARDQKGIVEEGHKIKGAAGSIGLRHIQQLGQQIQTPDLPAWSDNVAEWVEEMKSEWQNDVAVLKAWVAKASKK” the protein production was “failed”.
In the case of “MKQKNAYNRLTNHYDDVLTGRKWWSWLYMHCLWKTDDNIIAGSVLDMIPGNFEGRILDVPVGTAIFTYDKYRRMPQAEIVGLDYSQEMLDIAAMRFSAEQITNVSLRQGDVGSLPFPDAAFDLVLSMNGFHVFPDKDRAFAETFRVLRGGGLFCGCFYVKGERKPADWFVRKFLDKKGLFRPPHYTREEAIEKLRSLYGDNVEIQDARSLLVFKCTKPRLEHHHHHH”, the protein production was “not failed”.
For “MKQRVITAVIALILFIPIVLAGGLWMDWLTVLFAAVGISEIFLMKKQILVSFDFLLALLATLTWTVPDSFFKVFPSNITKLGVFYGIIMLFLTWTVLSKNKTTFDDVGVYILAALYIGIGFHYMAAIRAYPQNGLALLGYVFVVVWSTDIGAYMIGRKIGKHKLWPVISPNKTWEGSIGAVICALICSAIYLAILSSFNITFGVSELSMVVLAFFLSIVGQMGDLVESAYKRFYGVKDSGKILPGHGGILDRFDSMLFVLPVVAAILGIVH”, the protein production was “failed”.
For “MKQVPDVNKIKFDPETKRIVRKDVPLMMNSFDKKAVEEAIRISERHGWETCVATMGPPQAVEVINEALRMGIERGYLITDPSLANSDTLITSRVLAAFALRYGPDLVLMGKYSLDGETSQVPAEVSALMGWPYVPSVSKIMISDHLELEQELENGIYTCSAPLPCVLSLSEKINRARAIKPDTPQMYDRIVQIDTKWLGLDLDGGRDSPTAVIGTEQVNSNRSPVFIDPGADMYRQIMEIIRVSR”, the protein production was “failed”.

— a protein production outcome set (Wang et al. 2014)
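Also: failed if final PepcDB status was selected cloned or expressed and not failed if soluble or beyond.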
